Experimental data as given in the nanobody polyreactivity screen of Harvey et al. (2022).

Assay: yeast display, Sf9 membrane polyspecificity reagent, FACS + sequencing; frameworks hold sequencing errors
How it was run: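 Galactose induction of a Saccharomyces cerevisiae BJ5465 synthetic nanobody display library ran 36–48 hours. The cells were then stained for 1 hour at 4 °C with 10% biotinylated, detergent-solubilized Sf9 membrane reagent, pulled down on streptavidin microbeads and FACS-sorted into low and high (top ~1%) gates on expression and reagent-binding fluorescence. Labels for polyreactivity follow the gate of origin.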

Row | Sequence | polyreactivity (PSR sort gate)
1 | QVQLVESGGGLVQAGGSLRLSCAASGSTFGIYAMGWYRQAPGKERELVATITGRGGRTYYADSVKGRFTISRDNAKNTVYLQMNSLKQEDTAVYYCNAAYRGYYRYDYWGQGTQVTVSS | high polyreactivity
2 | QVQLVESGGGLVQAGGSLRLSCAASGSTFGKYAMGWYRPAPGKERELVAAITNGGRTNYADSVKGRFTISRDNAMNTVYLQMNSLKPEDTAVYYCNKARYGTDDYDYWGQGTQVTVSS | low polyreactivity
3 | QVQLVESGGGLVQAGGSLRLSCAASGSTFGKYAMGWYRQAPGKEREFVAAITWSGGRTYYADSVKGRFTISRDNAKNTVYLQMNSLKPEDTAVDYCAALWAYYSRGYYWGQGTQVTVSW | high polyreactivity
4 | QVQLVESGGGLVQAGGSLRLSCAASGSTFGKYAMGWYRQAPGKERELVAAITNGGRTNFADSVKGRFTISRDNAKNTVYLQMNSLKPEDTAVYFCNKARYGTDDYEYWGQGTQVTVSS | low polyreactivity
5 | QVQLVESGGGLVQAGGSLRLSCAASGSTFGLYAMGWYRQAPGKERELVAAIRWSGASTYYADSVKGRFTISRDNAKNTVYLQMNSLKPEDTAVYYCARRALGPRRGIRYDYWGQGTQVTVSS | high polyreactivity
6 | QVQLVESGGGLVQAGGSLRLSCAASGSTFGPNAMGWYRQAPGKERELVATISFRGGTTYYADSVKGRFTISRDNAKNTVYLQMNSLKPEDTAVYYCAVKVGYVRLLYHYYYWGQGTQVTVSS | high polyreactivity
7 | QVQLVESGGGLVQAGGSLRLSCAASGSTFGPNAMGWYRQAPGKERELVATISSGGSTYYADSVKGRFTISRDNAKNTVYLQMNSLKPEDTAVYYCNVLWLRSRRKYDYWGHGTQVTVSS | low polyreactivity
8 | QVQLVESGGGLVQAGGSLRLSCAASGSTFGPYAMGWYRPAPGKEMELVATITRNGGSTYYADSVKGRFTISRDNAKNTVYLQMNSLKPEDTAVYYCNAEGRWSSFTQRMDYWGQGTQVTVSS | low polyreactivity
9 | QVQLVESGGGLVQAGGSLRLSCAASGSTFGPYAMGWYRPAPGKERELVAAIRSGGSTYYADSVKGRFTISRDNAKNTVYLQMNSLKPEDTAVYYCAAGGHHSYTYWIYYYWGQGTQVTVSS | low polyreactivity
10 | QVQLVESGGGLVQAGGSLRLSCAASGSTFGPYAMGWYRQAPGKEREFVAGISKSTSSTYYADSVKGRFTISRDNAKNTVYLQMNSLKPEDTAVYYCAAQGGRNRGYRYYWGQGTQVTVSS | high polyreactivity
11 | QVQLVESGGGLVQAGGSLRLSCAASGSTFGPYAMGWYRQAPGKERELVATITRNGGSTYYADSVKGRFTISRDNAKNTVYLQMNSLKPEDTAVYYCNAEGRWSSFTQRMDYWGQGTQVTVSS | low polyreactivity
12 | QVQLVESGGGLVQAGGSLRLSCAASGSTFGPYAMGWYRQAPGQERELVATITRNGGSTYYADSVKGRFTISRDNAKNTVYLQMNSLKPEDTAVYYCAARLYYEIYDYGAVRIGYDYWGQGTQVTVSS | low polyreactivity
13 | QVQLVESGGGLVQAGGSLRLSCAASGSTFGPYTMGWKRPAPGKERELVATISSGGSTYYADSVKGRFTISRDNAKNTVYLQLNCLKPEDTAVYSCAKDFWYRSYDYWGQGTQVTLSS | low polyreactivity
14 | QVQLVESGGGLVQAGGSLRLSCAASGSTFGPYVMGRYRQAPGKDRELVAAITRSGGRTYYADSVKGRFTISRDNAKNTVYLQMNSLKPEDTAVYYCAAPPSEATSQRYKYNYWGQGTQVTVSS | high polyreactivity
15 | QVQLVESGGGLVQAGGSLRLSCAASGSTFGPYVMGWYRQAPGKERELVATITSDDSTNYADSVKGRFTISRDNAKNTVYLQMNSLKPEDTAVYYCAVERDYWTKASYYWGQGTQVTVSS | low polyreactivity
16 | QVQLVESGGGLVQAGGSLRLSCAASGSTFGQYVMAWYRQAPGKERELVAAISSGDSTNYADSVKGRFTISRDNAKNTVYLQMNSLKPEDTAVYYCAAARRPTYWPVYPYFGYEYWGQGTQVTVSS | low polyreactivity
17 | QVQLVESGGGLVQAGGSLRLSCAASGSTFGRNAMGWYRQAPGKERELVAAISYSGGSTYYADSVKGRFTISRDNAKNTVYLQMNSLKPEDTAVYYCNTVPKPWYSWKYAYDYWGQGTQVTVSS | high polyreactivity
18 | QVQLVESGGGLVQAGGSLRLSCAASGSTFGRNAMGWYRQAPGKERELVAASNWSDGSTHYADSVKGRFTISRDNAKNTVYLQMNSLKPEDTAVYYCAADAWSWPVDYNYWGQGTQVTVSS | low polyreactivity
19 | QVQLVESGGGLVQAGGSLRLSCAASGSTFGRNAMGWYRQAPGKERELVASISSGGSTYYADSVKGRFTISRDNAKNTVYLQMNSLKPEDTAVYYCARRAYQNWYNYWGQGTQVTVSS | high polyreactivity
20 | QVQLVESGGGLVQAGGSLRLSCAASGSTFGRYAMGCYIQAPGKERELVAAITRSGGRTYYADSVKGRFTISRDNAKNTVYLQMNSLIPEDTAVYYCAARSRRRFDWGQGTQVTVSS | high polyreactivity
21 | QVQLVESGGGLVQAGGSLRLSCAASGSTFGRYAMGWYGQAPGKERELVAAISASGASTYYADSVKGRFTISRDNAKNTVYLQMNSLKPEDTAVYYSNAPYYFAGKPWGSWRYGYWGQGTQVTVSS | low polyreactivity
22 | QVQLVESGGGLVQAGGSLRLSCAASGSTFGRYAMGWYRQAPGKEREFVAGITGRGGSTYYADSVKGRFTISRDNAKNTVYLQMNSLKPEDTAVYYCAAGYRVGYLRAGDYWGQGTQVTVSS | high polyreactivity

Row | Sequence | polyreactivity (PSR sort gate)
23 | QVQLVESGGGLVQAGGSLRLSCAASGSTFGRYAMGWYRQAPGKERELVAAINSRGGRKYYADSVKGRFTISRDNAKNTVYLQMNSLIPEDTAVYYCAAPTGPNGYYSDRGDSWGQGTQLTVSS | low polyreactivity
24 | QVQLVESGGGLVQAGGSLRLSCAASGSTFGRYAMGWYRQAPGKERELVAAISESDGSTYYADSVKGRFTISRDNAKNTVYLQMNSLKPEDTAVYYCAAEWTHYWWYQYDYWGQGTQVTVSS | high polyreactivity
25 | QVQLVESGGGLVQAGGSLRLSCAASGSTFGRYDMGSYRQAPGKERELVAAISRSGGGTYYADSVKGRFTISRDNAKNTVYLQMNSLKPEDTAVYYCAADYRDYPDSAYYYWGQGTQVTVSS | low polyreactivity
26 | QVQLVESGGGLVQAGGSLRLSCAASGSTFGRYVMGWYRQAPGKEWELVAAISKNAGSTYYADSVKGRFTISRDNAKNTVYLQMNSLKPEDTAVYYCAADWRTKGYDSLGQGTQVTVSS | high polyreactivity
27 | QVQLVESGGGLVQAGGSLRLSCAASGSTFGSNAMGWYRQAPGKERELVAAIDANGGSTYYADSVKGRFTISRDNAKNTVYLQMNSLKPEDTAVYYCAAAGYWYYYVPNDYWGQGTQVTVSS | low polyreactivity
28 | QVQLVESGGGLVQAGGSLRLSCAASGSTFGSNAMGWYRQAPGKERELVAAITGGDVSTYYADSVKGRFTISRDNAKNTVYLQMNSLKPEDTAVYYCNAEYARPAMDYWGQGTQVTVSS | low polyreactivity
29 | QVQLVESGGGLVQAGGSLRLSCAASGSTFGSYAMGWYIQAPGKERELVAAINWSGGITYYADSVKGRFTISRDNAKNTVYLQMNSLKPEDTAVYYCAADTRTYYYGSTYDYEYWGQGTQVTVSS | low polyreactivity
30 | QVQLVESGGGLVQAGGSLRLSCAASGSTFGSYAMGWYRQAPGKERELVAAISRGGGSTYYADSVKGRFTISRDNAKNTVYLQMNSLKPEDTAVYYCAATAQNDSRYGSRYYYWGQGTQVTVSS | high polyreactivity
31 | QVQLVESGGGLVQAGGSLRLSCAASGSTFGSYAMGWYRQAPGKERELVAGISWSGGRTYYADSVKGRFTISRDNAKNTVYLQMNSLKPEDTAVFYCALDTGYYYARYNFWGQGTKVTVSS | low polyreactivity
32 | QVQLVESGGGLVQAGGSLRLSCAASGSTFGTNAMGRYRQAPGKERELVAVITFSGGSTYYADSVKGRFTISRDNAKNTVYLQMNSLKPEDTAVYYCAKDGFITFVYDHDYWGQGTQVTVSS | low polyreactivity
33 | QVQLVESGGGLVQAGGSLRLSCAASGSTFGTNAMGWYRQAPGKERELVAAITKSGGSTYADSVKGRFTISRDNAKNTVYLQMNSLKPEDTAVYYCAAPNRYSVPMYYWGQGTQVTVSS | low polyreactivity
34 | QVQLVESGGGLVQAGGSLRLSCAASGSTFGTNDMGWYRQAPGKEREFVASIDWSGDSTNYADSVKGRFTISRDNAKNTVYLQMNSLKPEDTAVYYCAARVFPPSRHDYWGQGTQVTVSS | high polyreactivity
35 | QVQLVESGGGLVQAGGSLRLSCAASGSTFGTNVMGWYRQAPGKERELVAAISGRGGRTYYADSVKGRFTISRDNAKNTVYLQMNSLKPEDTAVYYCAAPRYYSREYDYWGQGTQVTVSS | high polyreactivity
36 | QVQLVESGGGLVQAGGSLRLSCAASGSTFGTYAMGWYRQAPGKERELVADITGSGGSTYYADSVKGRFTISRDNAKNTVYLQMNSLKPEDTAVYYCAAEYGLGDDTAYGYWGQGTQVTVSS | low polyreactivity
37 | QVQLVESGGGLVQAGGSLRLSCAASGSTFGVNAKGWYREAPGKERELVAGITSSGGSTYYADSVKGRFTTSRDNAKNTVYLQMNSLKPEDTAVYYCAARWIPASYGYGYWGQGTQVTVSS | low polyreactivity
38 | QVQLVESGGGLVQAGGSLRLSCAASGSTFGVNAMGWYRQAPGKERELVAAIDADGGITYYADSVKGRFTISRDNAKNTVYLQMNILKPEDTAVYYCAARVAVYFSYGSPYWYEYDYWGQGTQVTVSS | low polyreactivity
39 | QVQLVESGGGLVQAGGSLRLSCAASGSTFGVNAMGWYRQAPGKERELVAAISVSGGRTYYADSVKGRFTISRDNAKNTVYLLMNSLKPEDTAVYYCAATTYIWPYDYWGQGTQVTVSS | low polyreactivity
40 | QVQLVESGGGLVQAGGSLRLSCAASGSTFGVNAMGWYRQAPGKERELVAGISVDDSTTYYADSVKGRFTISRDNAKNTVYLQMNSLIPEDTAVYYCAAEREKTLYYLSRFDYWGQGTQVTVSS | low polyreactivity
41 | QVQLVESGGGLVQAGGSLRLSCAASGSTFGVNAMGWYRQAPGKERELVASISSGGGTYYADSVKGRFTISRDNAKNTVYLQMNSLKPEDTAVYYCAAVYYWYDSYAGYDYWGQGTQVTVSS | low polyreactivity
42 | QVQLVESGGGLVQAGGSLRLSCAASGSTFGVNDMGWYRQAPGKERELVAAISRGAITNYADSVKGRFTISRDNAKNTVYLQMNSLKPEDTAVYYCAAGFVTYYVPQYKEYGYDYWGQGTQVTVSS | low polyreactivity
43 | QVQLVESGGGLVQAGGSLRLSCAASGSTFGVYALGWYIPAPGKERELVDRITWSGGSTYYADSVKGRFTISRDNAKNTVYLQMNSLKPEDTAVFYCAARAWWDWYSPLWYYYWGQGTQVTVSS | high polyreactivity
